The text below walks through data of the supplement of paper PMC12338614.

± gives the uncertainty stated by the source.

B1: library; numbered along this chain (parent)
chain: MEVVDPQQLGMFTEGELMSVGMDTFIHRIDSTEVIYQPRRKRAKLIGKYLMGDLLGEGSYGKVKEVLDSETLCRRAVKILKKKKLRRIPNGEANVKKEIQLLRRLRHKNVIQLVDVLYNEEKQKMYMVMEYCVCGMQEMLDSVPEKRFPVCQAHGYFCQLIDGLEYLHSQGIVHKDIKPGNLLLTTGGTLKISDLGVAEALHPFAADDTCRTSQGSPAFQPPEIANGLDTFSGFKVDIWSAGVTLYNITTGLYPFEGDNIYKLFENIGKGSYAIPGDCGPPLSDLLKGMLEYEPAKRFSIRQIRQHSWFRKKHPPAEAPVPIPPSPDTKDRWRSMTVVPYLEDLHGADEDEDLFDIEDDIIYTQDFTVPGQVPEEEASHNGQRRGLPKAVCMNGTEAAQLSTKSRAEGRAPNPARKACSASSKIRRLSACKQQ

In the series the parent is B1. Nature of the series: STK11 functional score (HeLa growth suppression), rescaled enrichment; synonymous median = 1, nonsense median = 0 (normalised score). The following applies: with HeLa; variant type: missense. On the procedure:
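Deep mutational scan (TileSeq/POPCode codon randomisation) of full-length codon-optimised STK11 cDNA integrated at a Bxb1 landing pad (AAVS1) in HeLa cells. Restoring functional STK11 suppresses HeLa proliferation. Variant frequencies were measured by NGS before and after about two weeks of growth. The error-corrected enrichment log-ratio was rescaled so that synonymous median = 1 and nonsense median = 0, scores above 1 were compressed, and codon-level and three biological replicate scores were combined; error is the bootstrapped standard error. Scale: synonymous median = 1, nonsense median = 0; below 0.5 = damaging.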
Consider MEVVDPQQLGMFTEGELMSVGMDTFIHRIDSTEVIYQPRRKRAKLIGKYLMGDLRGEGSYGKVKEVLDSETLCRRAVKILKKKKLRRIPNGEANVKKEIQLLRRLRHKNVIQLVDVLYNEEKQKMYMVMEYCVCGMQEMLDSVPEKRFPVCQAHGYFCQLIDGLEYLHSQGIVHKDIKPGNLLLTTGGTLKISDLGVAEALHPFAADDTCRTSQGSPAFQPPEIANGLDTFSGFKVDIWSAGVTLYNITTGLYPFEGDNIYKLFENIGKGSYAIPGDCGPPLSDLLKGMLEYEPAKRFSIRQIRQHSWFRKKHPPAEAPVPIPPSPDTKDRWRSMTVVPYLEDLHGADEDEDLFDIEDDIIYTQDFTVPGQVPEEEASHNGQRRGLPKAVCMNGTEAAQLSTKSRAEGRAPNPARKACSASSKIRRLSACKQQ [L55R], for which the STK11 functional score is 1.21 ± 0.11.

Take MEVVDPQQLGMFTEGELMSVGMDTFIHRIDSTEVIYQPRRKRAKLIGKYLMGDLVGEGSYGKVKEVLDSETLCRRAVKILKKKKLRRIPNGEANVKKEIQLLRRLRHKNVIQLVDVLYNEEKQKMYMVMEYCVCGMQEMLDSVPEKRFPVCQAHGYFCQLIDGLEYLHSQGIVHKDIKPGNLLLTTGGTLKISDLGVAEALHPFAADDTCRTSQGSPAFQPPEIANGLDTFSGFKVDIWSAGVTLYNITTGLYPFEGDNIYKLFENIGKGSYAIPGDCGPPLSDLLKGMLEYEPAKRFSIRQIRQHSWFRKKHPPAEAPVPIPPSPDTKDRWRSMTVVPYLEDLHGADEDEDLFDIEDDIIYTQDFTVPGQVPEEEASHNGQRRGLPKAVCMNGTEAAQLSTKSRAEGRAPNPARKACSASSKIRRLSACKQQ [L55V]: the STK11 functional score is 0.737 ± 0.11.

Turning to MEVVDPQQLGMFTEGELMSVGMDTFIHRIDSTEVIYQPRRKRAKLIGKYLMGDLSGEGSYGKVKEVLDSETLCRRAVKILKKKKLRRIPNGEANVKKEIQLLRRLRHKNVIQLVDVLYNEEKQKMYMVMEYCVCGMQEMLDSVPEKRFPVCQAHGYFCQLIDGLEYLHSQGIVHKDIKPGNLLLTTGGTLKISDLGVAEALHPFAADDTCRTSQGSPAFQPPEIANGLDTFSGFKVDIWSAGVTLYNITTGLYPFEGDNIYKLFENIGKGSYAIPGDCGPPLSDLLKGMLEYEPAKRFSIRQIRQHSWFRKKHPPAEAPVPIPPSPDTKDRWRSMTVVPYLEDLHGADEDEDLFDIEDDIIYTQDFTVPGQVPEEEASHNGQRRGLPKAVCMNGTEAAQLSTKSRAEGRAPNPARKACSASSKIRRLSACKQQ [L55S], the STK11 functional score was determined as 0.693 ± 0.14.

For the variant MEVVDPQQLGMFTEGELMSVGMDTFIHRIDSTEVIYQPRRKRAKLIGKYLMGDLMGEGSYGKVKEVLDSETLCRRAVKILKKKKLRRIPNGEANVKKEIQLLRRLRHKNVIQLVDVLYNEEKQKMYMVMEYCVCGMQEMLDSVPEKRFPVCQAHGYFCQLIDGLEYLHSQGIVHKDIKPGNLLLTTGGTLKISDLGVAEALHPFAADDTCRTSQGSPAFQPPEIANGLDTFSGFKVDIWSAGVTLYNITTGLYPFEGDNIYKLFENIGKGSYAIPGDCGPPLSDLLKGMLEYEPAKRFSIRQIRQHSWFRKKHPPAEAPVPIPPSPDTKDRWRSMTVVPYLEDLHGADEDEDLFDIEDDIIYTQDFTVPGQVPEEEASHNGQRRGLPKAVCMNGTEAAQLSTKSRAEGRAPNPARKACSASSKIRRLSACKQQ [L55M], the STK11 functional score was determined as 0.938 ± 0.19.

With MEVVDPQQLGMFTEGELMSVGMDTFIHRIDSTEVIYQPRRKRAKLIGKYLMGDLWGEGSYGKVKEVLDSETLCRRAVKILKKKKLRRIPNGEANVKKEIQLLRRLRHKNVIQLVDVLYNEEKQKMYMVMEYCVCGMQEMLDSVPEKRFPVCQAHGYFCQLIDGLEYLHSQGIVHKDIKPGNLLLTTGGTLKISDLGVAEALHPFAADDTCRTSQGSPAFQPPEIANGLDTFSGFKVDIWSAGVTLYNITTGLYPFEGDNIYKLFENIGKGSYAIPGDCGPPLSDLLKGMLEYEPAKRFSIRQIRQHSWFRKKHPPAEAPVPIPPSPDTKDRWRSMTVVPYLEDLHGADEDEDLFDIEDDIIYTQDFTVPGQVPEEEASHNGQRRGLPKAVCMNGTEAAQLSTKSRAEGRAPNPARKACSASSKIRRLSACKQQ [L55W], the STK11 functional score worked out at 0.491 ± 0.13.

MEVVDPQQLGMFTEGELMSVGMDTFIHRIDSTEVIYQPRRKRAKLIGKYLMGDLQGEGSYGKVKEVLDSETLCRRAVKILKKKKLRRIPNGEANVKKEIQLLRRLRHKNVIQLVDVLYNEEKQKMYMVMEYCVCGMQEMLDSVPEKRFPVCQAHGYFCQLIDGLEYLHSQGIVHKDIKPGNLLLTTGGTLKISDLGVAEALHPFAADDTCRTSQGSPAFQPPEIANGLDTFSGFKVDIWSAGVTLYNITTGLYPFEGDNIYKLFENIGKGSYAIPGDCGPPLSDLLKGMLEYEPAKRFSIRQIRQHSWFRKKHPPAEAPVPIPPSPDTKDRWRSMTVVPYLEDLHGADEDEDLFDIEDDIIYTQDFTVPGQVPEEEASHNGQRRGLPKAVCMNGTEAAQLSTKSRAEGRAPNPARKACSASSKIRRLSACKQQ [L55Q]: the STK11 functional score is 1.59 ± 0.43.

For MEVVDPQQLGMFTEGELMSVGMDTFIHRIDSTEVIYQPRRKRAKLIGKYLMGDLIGEGSYGKVKEVLDSETLCRRAVKILKKKKLRRIPNGEANVKKEIQLLRRLRHKNVIQLVDVLYNEEKQKMYMVMEYCVCGMQEMLDSVPEKRFPVCQAHGYFCQLIDGLEYLHSQGIVHKDIKPGNLLLTTGGTLKISDLGVAEALHPFAADDTCRTSQGSPAFQPPEIANGLDTFSGFKVDIWSAGVTLYNITTGLYPFEGDNIYKLFENIGKGSYAIPGDCGPPLSDLLKGMLEYEPAKRFSIRQIRQHSWFRKKHPPAEAPVPIPPSPDTKDRWRSMTVVPYLEDLHGADEDEDLFDIEDDIIYTQDFTVPGQVPEEEASHNGQRRGLPKAVCMNGTEAAQLSTKSRAEGRAPNPARKACSASSKIRRLSACKQQ [L55I], the STK11 functional score came to 1.39 ± 0.34.

As for MEVVDPQQLGMFTEGELMSVGMDTFIHRIDSTEVIYQPRRKRAKLIGKYLMGDLHGEGSYGKVKEVLDSETLCRRAVKILKKKKLRRIPNGEANVKKEIQLLRRLRHKNVIQLVDVLYNEEKQKMYMVMEYCVCGMQEMLDSVPEKRFPVCQAHGYFCQLIDGLEYLHSQGIVHKDIKPGNLLLTTGGTLKISDLGVAEALHPFAADDTCRTSQGSPAFQPPEIANGLDTFSGFKVDIWSAGVTLYNITTGLYPFEGDNIYKLFENIGKGSYAIPGDCGPPLSDLLKGMLEYEPAKRFSIRQIRQHSWFRKKHPPAEAPVPIPPSPDTKDRWRSMTVVPYLEDLHGADEDEDLFDIEDDIIYTQDFTVPGQVPEEEASHNGQRRGLPKAVCMNGTEAAQLSTKSRAEGRAPNPARKACSASSKIRRLSACKQQ [L55H], the STK11 functional score amounted to 1.43 ± 0.47.

As to MEVVDPQQLGMFTEGELMSVGMDTFIHRIDSTEVIYQPRRKRAKLIGKYLMGDLPGEGSYGKVKEVLDSETLCRRAVKILKKKKLRRIPNGEANVKKEIQLLRRLRHKNVIQLVDVLYNEEKQKMYMVMEYCVCGMQEMLDSVPEKRFPVCQAHGYFCQLIDGLEYLHSQGIVHKDIKPGNLLLTTGGTLKISDLGVAEALHPFAADDTCRTSQGSPAFQPPEIANGLDTFSGFKVDIWSAGVTLYNITTGLYPFEGDNIYKLFENIGKGSYAIPGDCGPPLSDLLKGMLEYEPAKRFSIRQIRQHSWFRKKHPPAEAPVPIPPSPDTKDRWRSMTVVPYLEDLHGADEDEDLFDIEDDIIYTQDFTVPGQVPEEEASHNGQRRGLPKAVCMNGTEAAQLSTKSRAEGRAPNPARKACSASSKIRRLSACKQQ [L55P], the STK11 functional score turned out to be 1.23 ± 0.39.

Consider MEVVDPQQLGMFTEGELMSVGMDTFIHRIDSTEVIYQPRRKRAKLIGKYLMGDLLAEGSYGKVKEVLDSETLCRRAVKILKKKKLRRIPNGEANVKKEIQLLRRLRHKNVIQLVDVLYNEEKQKMYMVMEYCVCGMQEMLDSVPEKRFPVCQAHGYFCQLIDGLEYLHSQGIVHKDIKPGNLLLTTGGTLKISDLGVAEALHPFAADDTCRTSQGSPAFQPPEIANGLDTFSGFKVDIWSAGVTLYNITTGLYPFEGDNIYKLFENIGKGSYAIPGDCGPPLSDLLKGMLEYEPAKRFSIRQIRQHSWFRKKHPPAEAPVPIPPSPDTKDRWRSMTVVPYLEDLHGADEDEDLFDIEDDIIYTQDFTVPGQVPEEEASHNGQRRGLPKAVCMNGTEAAQLSTKSRAEGRAPNPARKACSASSKIRRLSACKQQ [G56A], for which the STK11 functional score was determined as 0.838 ± 0.097.

In the case of MEVVDPQQLGMFTEGELMSVGMDTFIHRIDSTEVIYQPRRKRAKLIGKYLMGDLLHEGSYGKVKEVLDSETLCRRAVKILKKKKLRRIPNGEANVKKEIQLLRRLRHKNVIQLVDVLYNEEKQKMYMVMEYCVCGMQEMLDSVPEKRFPVCQAHGYFCQLIDGLEYLHSQGIVHKDIKPGNLLLTTGGTLKISDLGVAEALHPFAADDTCRTSQGSPAFQPPEIANGLDTFSGFKVDIWSAGVTLYNITTGLYPFEGDNIYKLFENIGKGSYAIPGDCGPPLSDLLKGMLEYEPAKRFSIRQIRQHSWFRKKHPPAEAPVPIPPSPDTKDRWRSMTVVPYLEDLHGADEDEDLFDIEDDIIYTQDFTVPGQVPEEEASHNGQRRGLPKAVCMNGTEAAQLSTKSRAEGRAPNPARKACSASSKIRRLSACKQQ [G56H], the STK11 functional score worked out at 0.0953 ± 0.25.

Regarding MEVVDPQQLGMFTEGELMSVGMDTFIHRIDSTEVIYQPRRKRAKLIGKYLMGDLLCEGSYGKVKEVLDSETLCRRAVKILKKKKLRRIPNGEANVKKEIQLLRRLRHKNVIQLVDVLYNEEKQKMYMVMEYCVCGMQEMLDSVPEKRFPVCQAHGYFCQLIDGLEYLHSQGIVHKDIKPGNLLLTTGGTLKISDLGVAEALHPFAADDTCRTSQGSPAFQPPEIANGLDTFSGFKVDIWSAGVTLYNITTGLYPFEGDNIYKLFENIGKGSYAIPGDCGPPLSDLLKGMLEYEPAKRFSIRQIRQHSWFRKKHPPAEAPVPIPPSPDTKDRWRSMTVVPYLEDLHGADEDEDLFDIEDDIIYTQDFTVPGQVPEEEASHNGQRRGLPKAVCMNGTEAAQLSTKSRAEGRAPNPARKACSASSKIRRLSACKQQ [G56C], the STK11 functional score stood at 0.475 ± 0.15.

On to MEVVDPQQLGMFTEGELMSVGMDTFIHRIDSTEVIYQPRRKRAKLIGKYLMGDLLEEGSYGKVKEVLDSETLCRRAVKILKKKKLRRIPNGEANVKKEIQLLRRLRHKNVIQLVDVLYNEEKQKMYMVMEYCVCGMQEMLDSVPEKRFPVCQAHGYFCQLIDGLEYLHSQGIVHKDIKPGNLLLTTGGTLKISDLGVAEALHPFAADDTCRTSQGSPAFQPPEIANGLDTFSGFKVDIWSAGVTLYNITTGLYPFEGDNIYKLFENIGKGSYAIPGDCGPPLSDLLKGMLEYEPAKRFSIRQIRQHSWFRKKHPPAEAPVPIPPSPDTKDRWRSMTVVPYLEDLHGADEDEDLFDIEDDIIYTQDFTVPGQVPEEEASHNGQRRGLPKAVCMNGTEAAQLSTKSRAEGRAPNPARKACSASSKIRRLSACKQQ [G56E], for which the STK11 functional score is 1.13 ± 0.098.

In the case of MEVVDPQQLGMFTEGELMSVGMDTFIHRIDSTEVIYQPRRKRAKLIGKYLMGDLLFEGSYGKVKEVLDSETLCRRAVKILKKKKLRRIPNGEANVKKEIQLLRRLRHKNVIQLVDVLYNEEKQKMYMVMEYCVCGMQEMLDSVPEKRFPVCQAHGYFCQLIDGLEYLHSQGIVHKDIKPGNLLLTTGGTLKISDLGVAEALHPFAADDTCRTSQGSPAFQPPEIANGLDTFSGFKVDIWSAGVTLYNITTGLYPFEGDNIYKLFENIGKGSYAIPGDCGPPLSDLLKGMLEYEPAKRFSIRQIRQHSWFRKKHPPAEAPVPIPPSPDTKDRWRSMTVVPYLEDLHGADEDEDLFDIEDDIIYTQDFTVPGQVPEEEASHNGQRRGLPKAVCMNGTEAAQLSTKSRAEGRAPNPARKACSASSKIRRLSACKQQ [G56F], the STK11 functional score worked out at 0.171 ± 0.08.
